Source: IntAct's records for PubMed 11782428

B1: Tyrosine-protein kinase Lyn (Homo sapiens), P07948 (parent)
chain: MGCIKSKGKDSLSDDGVDLKTQPVRNTERTIYVRDPTSNKQQRPVPESQLLPGQRFQTKDPEEQGDIVVALYPYDGIHPDDLSFKKGEKMKVLEEHGEWWKAKSLLTKKEGFIPSNYVAKLNTLETEEWFFKDITRKDAERQLLAPGNSAGAFLIRESETLKGSFSLSVRDFDPVHGDVIKHYKIRSLDNGGYYISPRITFPCISDMIKHYQKQADGLCRRLEKACISPKPQKPWDKDAWEIPRESIKLVKRLGAGQFGEVWMGYYNNSTKVAVKTLKPGTMSVQAFLEEANLMKTLQHDKLVRLYAVVTREEPIYIITEYMAKGSLLDFLKSDEGGKVLLPKLIDFSAQIAEGMAYIERKNYIHRDLRAANVLVSESLMCKIADFGLARVIEDNEYTAREGAKFPIKWTAPEAINFGCFTIKSDVWSFGILLYEIVTYGKIPYPGRTNADVMTALSQGYRMPRVENCPDELYDIMKMCWKEKAEERPTFDYLQSVLDDFYTATEGQYQQQP
partner: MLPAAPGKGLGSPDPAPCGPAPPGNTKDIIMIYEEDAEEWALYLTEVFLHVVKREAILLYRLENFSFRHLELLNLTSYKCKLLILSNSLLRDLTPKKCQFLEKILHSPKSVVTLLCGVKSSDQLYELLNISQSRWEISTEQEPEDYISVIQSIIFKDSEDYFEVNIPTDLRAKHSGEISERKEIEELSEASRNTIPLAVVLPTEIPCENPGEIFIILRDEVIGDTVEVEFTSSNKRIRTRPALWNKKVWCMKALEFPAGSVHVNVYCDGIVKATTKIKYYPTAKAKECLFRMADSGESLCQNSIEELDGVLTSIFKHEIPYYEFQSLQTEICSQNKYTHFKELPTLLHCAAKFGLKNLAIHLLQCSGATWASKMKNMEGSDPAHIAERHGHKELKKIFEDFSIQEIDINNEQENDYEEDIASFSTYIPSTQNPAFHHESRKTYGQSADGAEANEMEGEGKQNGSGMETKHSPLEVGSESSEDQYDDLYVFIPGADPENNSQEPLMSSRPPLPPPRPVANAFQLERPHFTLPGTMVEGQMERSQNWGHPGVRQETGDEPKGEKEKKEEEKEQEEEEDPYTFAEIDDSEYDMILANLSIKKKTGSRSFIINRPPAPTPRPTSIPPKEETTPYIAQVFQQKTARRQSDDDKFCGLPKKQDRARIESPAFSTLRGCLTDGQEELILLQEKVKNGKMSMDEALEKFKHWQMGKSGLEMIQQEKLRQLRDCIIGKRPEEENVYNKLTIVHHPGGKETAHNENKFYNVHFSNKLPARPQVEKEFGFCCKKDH

Variants of: B1
Details: with bank1_human BANK1, Q8NDB2

Variant	effect of a mutation on the interaction
K275L	decreasing interaction strength
Y508F	with no effect
R156D;S158F	with no effect
P114L	with no effect
